In publication PMC12732243:

Target: human FSH receptor (human) (UniProt P23945)
Sequence (P23945 18-695): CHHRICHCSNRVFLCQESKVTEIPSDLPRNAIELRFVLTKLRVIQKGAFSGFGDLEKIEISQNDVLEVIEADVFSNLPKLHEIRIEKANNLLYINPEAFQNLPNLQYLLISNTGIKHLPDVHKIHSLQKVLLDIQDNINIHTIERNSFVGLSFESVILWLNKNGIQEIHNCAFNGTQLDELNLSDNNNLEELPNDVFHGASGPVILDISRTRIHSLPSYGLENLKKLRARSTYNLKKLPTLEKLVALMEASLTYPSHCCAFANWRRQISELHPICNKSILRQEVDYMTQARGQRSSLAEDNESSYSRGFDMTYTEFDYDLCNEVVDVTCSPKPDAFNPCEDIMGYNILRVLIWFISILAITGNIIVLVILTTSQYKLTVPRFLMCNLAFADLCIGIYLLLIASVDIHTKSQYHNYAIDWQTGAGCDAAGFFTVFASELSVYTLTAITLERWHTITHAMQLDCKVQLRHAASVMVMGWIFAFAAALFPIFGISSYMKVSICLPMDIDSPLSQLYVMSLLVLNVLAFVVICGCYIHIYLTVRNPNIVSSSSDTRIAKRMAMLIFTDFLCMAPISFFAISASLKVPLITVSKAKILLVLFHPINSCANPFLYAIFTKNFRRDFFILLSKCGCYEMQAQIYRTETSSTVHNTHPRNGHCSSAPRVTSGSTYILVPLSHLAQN

cAMP accumulation (HTRF) in HEK 293 cells expressing hFSHR, 30 min at room temperature with 0.5 mM IBMX; EC50 of the dose-response curve: 4.9 µL/mL
Substance: recombinant monkey single-chain FSHβ/α (from UniProt Q6EV79 19-129; Q9BEH3 25-120) (ligand)
